Data on 1 molecule can be found in article PMC7510951 (Cancer research, 2020).

This test concerns the target T1, 6xHis-EYA2 ED (human EYA2 residues 253-538) (human, UniProt O00167 253-538).
T1 sequence (looked up): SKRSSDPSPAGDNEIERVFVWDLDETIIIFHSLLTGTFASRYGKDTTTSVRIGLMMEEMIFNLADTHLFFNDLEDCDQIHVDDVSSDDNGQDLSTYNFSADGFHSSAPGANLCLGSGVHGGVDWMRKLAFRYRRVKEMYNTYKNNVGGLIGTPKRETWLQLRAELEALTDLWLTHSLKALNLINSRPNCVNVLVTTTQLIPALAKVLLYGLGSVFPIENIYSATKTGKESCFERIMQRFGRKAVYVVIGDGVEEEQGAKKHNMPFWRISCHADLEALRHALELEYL
Briefly: AlphaScreen or HTRF. On the technique in general: In Alpha technology, singlet oxygen from a donor bead excites a nearby acceptor bead.

B1: GST-SIX1 (human SIX1 residues 1-259) (domain or fragment, UniProt Q15475 1-259, looked up)
chain: MSMLPSFGFTQEQVACVCEVLQQGGNLERLGRFLWSLPACDHLHKNESVLKAKAVVAFHRGNFRELYKILESHQFSPHNHPKLQQLWLKAHYVEAEKLRGRPLGAVGKYRVRRKFPLPRTIWDGEETSYCFKEKSRGVLREWYAHNPYPSPREKRELAEATGLTTTQVSNWFKNRRQRDRAAEAKERENTENNNSSSNKQNQLSPLEGGKPLMSSSEEEFSPPQSPDQNSVLLLQGNMGHARSSNYSLPGLTASQPSHG
With B1, the binding result is recorded as “binds”.
